Assay results taken from patent US20210403582A1 (JACOBIO PHARMACEUTICALS, published 2021).

Key:
[1] = molecular target: recombinant mouse LIF protein (mouse, UniProt P09056 24-203); assay: ELISA, mouse LIF coated at 1 µg/mL, A450
Experimental: (§1) The recombinant mouse LIF protein (purchased from ACRO Biosystems) was diluted to 1 μg/mL, and was coated on the enzyme label plate, 100 μL of protein was added into every well, and incubated overnight in 4° C. The enzyme label plates were taken out next day, and the liquid was discarded, and were washed with PBST three times and blocked with 2% BSA in PBS for 1 h at room temperature, then washed with PBST three times, and added anti-human LIF antibodies 38E10E1C11, 5D8 and P36-033 at different concentrations and incubated for 1 h at room temperature. The liquid was discarded, and the plates were washed with PBST four times. The plates were added with HRP-labeled goat anti-mouse Fab antibody or goat anti-human FC antibody and incubated for 1 h at room temperature. Then the liquid was discarded, and the plates were washed four times with PBST and incubated with TMB colored solution in 10 minutes at room temperature. Stop color development by adding 2 mol/L H₂SO₄, and the absorption value at 450 nm is quantitated using an automated plate photometer, and the results were shown in FIG. 2.

human CNTF = molecular target: T1, human CNTF (human, UniProt P26441 1-200, limits assumed); assay: ELISA, human CNTF coated at 1 µg/mL, HRP goat anti-mouse Fab, A450
T1 sequence (looked up): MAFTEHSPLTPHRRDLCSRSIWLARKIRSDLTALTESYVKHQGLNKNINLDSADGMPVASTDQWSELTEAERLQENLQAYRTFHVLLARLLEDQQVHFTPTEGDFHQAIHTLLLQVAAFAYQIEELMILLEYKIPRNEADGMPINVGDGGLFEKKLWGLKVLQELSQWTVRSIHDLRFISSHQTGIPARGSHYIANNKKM
Experimental: After washed four times with PBST, HRP-labeled goat anti-mouse Fab secondary antibodies were added and incubated at room temperature for 1 h. After washed four times with PBST, TMB colored solution was added and color developing for 10 min at room temperature. The absorption value at 450 nm was read by the enzyme maker. The data were analyzed and plotted using Origin pro 9 software.

human LIF protein [2] = molecular target: T2, human LIF protein (human, UniProt P15018 23-202); assay: ELISA, human LIF coated at 1 µg/mL, A450
T2 construct: Bought recombinant protein (Sino Biological / Yiqiao Shenzhou 14890-HNAH) in most assays; also called recombinant human LIF protein; rhLIF
Experimental: as §1, with “recombinant human” for “recombinant mouse”, “protein” for “protein (purchased from ACRO Biosystems)”, “μg/mL,” for “μg/mL, and”, “of the” for “of”, “FIG. 1.” for “FIG. 2.”

human LIF protein [3] = molecular target: T2, human LIF protein; assay: KinExA 4000, solution equilibrium
Experimental: The affinity of the purified monoclonal antibodies to the recombinant human LIF protein was determined by KinExA 4000. 200 mg PMMA hard beads were added with 30 μg of the 38E10E1C11 antibody and additional adding coating solution to 1 mL. The buffer composition is 1 xPBS, pH 7.4, 0.02% NaN3. And make sure that the beads were completely suspended in the solution, and rotated for 2 h at room temperature. The beads were naturally settled or quickly centrifuged at low speed. The supernatant was removed and the beads were blocked with PBS containing 1% BSA. 15 mL of 300 pM antigen solution and 15 mL of 240 pM Ab2 (38E10E1C11) solution were prepared. 0.6 mL of 300 pM antigen and 0.6 mL of 240 pM antibody Ab2 (38E10E1C11) were put into different sample tubes separately. The samples in the two tubes were well mixed and put together into one tube, the concentration of the antigen was 150 pM and the concentration of antibody Ab2 (38E10E1C11) was 120 pM at this time, and the solution was placed in the corresponding position in the tube holder. […] Each group was added with 1 μg/L1 Streptavidin Protein, DyLight 650 Solution, and was detected on machine set to incubate for 24 hours. In the KinExatm Pro software, the equilibrium dissociation constant (Kd) for n-curve analysis was calculated by the unknown ligand model, and the results are shown in FIG. 4.

T2 sequence (P15018 23-202 limits assumed): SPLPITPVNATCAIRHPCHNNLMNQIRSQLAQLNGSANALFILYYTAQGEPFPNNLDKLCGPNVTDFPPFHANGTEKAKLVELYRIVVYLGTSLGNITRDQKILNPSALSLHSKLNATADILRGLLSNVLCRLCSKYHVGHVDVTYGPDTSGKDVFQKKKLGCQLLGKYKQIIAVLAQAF

B1: 38E10E1C11 antibody (antibody, mouse IgG1, kappa)
heavy: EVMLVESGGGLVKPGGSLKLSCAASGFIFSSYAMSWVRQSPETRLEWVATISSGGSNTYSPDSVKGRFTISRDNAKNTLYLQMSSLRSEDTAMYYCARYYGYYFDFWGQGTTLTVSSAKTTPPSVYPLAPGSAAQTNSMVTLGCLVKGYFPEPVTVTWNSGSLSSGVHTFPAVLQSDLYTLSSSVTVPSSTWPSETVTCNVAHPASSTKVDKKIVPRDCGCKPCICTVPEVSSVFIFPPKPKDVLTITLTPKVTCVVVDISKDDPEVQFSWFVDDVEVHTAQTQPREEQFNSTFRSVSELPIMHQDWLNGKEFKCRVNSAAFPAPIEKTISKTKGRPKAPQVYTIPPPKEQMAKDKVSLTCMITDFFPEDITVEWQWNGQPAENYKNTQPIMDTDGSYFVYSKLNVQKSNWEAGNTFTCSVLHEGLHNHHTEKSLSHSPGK
light: DIHMTQSPASLSASVGETVTITCRASENIYSYLAWYQQKQGKSPQLLVYNAKTLAEGVPSRFSGSGSGTQFSLKINSLQPEDFGSYYCQHHYVTPLTFGAGTKLELKRADAAPTVSIFPPSSEQLTSGGASVVCFLNNFYPKDINVKWKIDGSERQNGVLNSWTDQDSKDSTYSMSSTLTLTKDEYERHNSYTCEATHKTSTSPIVKSFNRNEC
notes: Mouse IgG1, kappa light chain; also called 38E10E1C11 mAb; mAb38E10E1C11
binding result [1]: no binding (tested: 100 µg/mL (log 2))
binding result (human CNTF): no binding (tested: 25 ug/ml)
EC50 (read off the curve) (human LIF protein [2]): ~0.05 µg/mL
Kd (human LIF protein [3]): 4.52 pM
